The values below come from patent US20010016194A1 (published 2001).

In test [1] the target is T1, Raf-1 proteins present in human T-cell lysates (human, UniProt P04049 1-648).
T1 construct: Endogenous protein within a cell lysate, so other lysate proteins were present; also called T-cell derived Raf-1 proteins; cellular Raf-1 serine/threonine kinase
The test is described as follows: anti-FLAG bead pull-down from T-cell lysate, anti-Raf-1 immunoblot. For orientation: In western blotting, separated proteins are transferred to a membrane and probed.

Test [2] deals with T1, Raf-1 proteins present in human T-cell …. The test is described as follows: anti-FLAG affinity column pull-down from 35S-labelled human T-cell lysate, anti-SP-63 immunoblot.
The target in a further test is T2, (His)6-Raf-1 protein (UniProt P04049 1-648, limits assumed).
T2 construct: Made in M15 bacteria and purified on Ni-NTA, or used as bacterial lysate; also called bacterially produced (His)6-Raf-1
The test is described as follows: totally cell-free pull-down on anti-FLAG beads, anti-Raf-1 immunoblot. The source says: Eluted proteins were separated on SDS-PAGE, transferred onto Immobilon membrane and blotted with anti-Raf-1 antibody.

B1: FLAG-HMK-IL-2Rβ chain containing only the proline rich C-terminal (CT+) (receptor)
chain: QPLSGEDDAYCTFPSRDDLLLFSPSLLGGPSPPSTAPGGSGAGEERMPPSLQERVPRDWDPQPLGPPTPGVPDLVDFQPPPELVLREAGEEVPDAGPREGVSFPWSRPPGQGEFRALNARLPLNTDAYLSLQELQGQDPTHLV
notes: How it was constructed is not described; also called FLAG-HMK-IL-2Rβ chain CT+ proteins; not shown: 17 amino acid FLAG-HMK tag
With B1, the binding result in test [1] is given as “no binding”.

B2: FLAG-HMK-IL-2Rβ chain cytoplasmic domain wild type fusion protein (receptor, not shown: small tags and cut ends)
chain: NCRNTGPWLKKVLKCNTPDPSKFFSQLSSEHGGDVQKWLSSPFPSSSFSPGGLAPEISPLEVLERDKVTQLLLQQDKVPEPASLSSNHSLTSCFTNQGYFFFHLPDALEIEACQVYFTYDPYSEEDPDEGVAGAPTGSSPQPLQPLSGEDDAYCTFPSRDDLLLFSPSLLGGPSPPSTAPGGSGAGEERMPPSLQERVPRDWDPQPLGPPTPGVPDLVDFQPPPELVLREAGEEVPDAGPREGVSFPWSRPPGQGEFRALNARLPLNTDAYLSLQELQGQDPTHLV
notes: Made in BL-21 pLysS bacteria, about 33 kDa; also called FLAG-HMK-IL-2Rβ chain wild type (WT); FLAG-HMK-IL-2Rβ-WT
As to B2, in test [2], the binding result was “binds”.

B3: FLAG-HMK-IL-2Rβ chain mutant lacking both acidic domain and proline rich C-terminal (A-CT-) (receptor)
chain: NCRNTGPWLKKVLKCNTPDPSKFFSQLSSEHGGDVQKWLSSPFPSSSFSPGGLAPEISPLEVLERDKVTQLLL
notes: How it was constructed is not described; also called FLAG-HMK-IL-2Rβ S+; not shown: 17 amino acid FLAG-HMK tag
In the case of B3, the binding result (in test [1]; with (His)6-Raf-1 protein) was “no binding” each time.
